# According to patent US20210388087A1 (Chugai, published 2021):
# Changes are numbered by the printed parent chain.
# B1: H0868L0581 (antibody, V domains shown)
# VH: QVQLVESGGGLVQPGRSLRLSCAASGFKFSNVWMHWVRQAPGKGLEWVAQIKDKYNAYAAYYAPSVKGRFTISRDDSKNSIYLQMNSLKTEDTAVYYCHYVHYASASTLLPAFGVDAWGQGTTVTVSS
# VL: DIVMTQSPLSLPVTPGEPASISCQPSQEVVHMNRNTYLHWYQQKPGQAPRLLIYKVSNRFPGVPDRFSGSGSGTDFTLKISRVEAEDVGVYYCAQGTSHPFTFGQGTKLEIK
# notes: Dual-Ig, IgG; also called H868L581; dBBDu183H0868/dBBDu072L0581
# B2: H1550L0918 (antibody, V domains shown)
# VH: B1 VH with V101I
# VL: B1 VL with R34N, N35V, T36V
# notes: Dual-Ig, IgG; also called H1550L918; dBBDu183H1550/dBBDu072L0918
# B3: H1571L0581 (antibody, V domains shown)
# VH: B1 VH with M34F, A60T
# VL: B1 VL
# notes: Dual-Ig, IgG; also called dBBDu183H1571/dBBDu072L0581
# B4: H1610L0581 (antibody, V domains shown)
# VH: B1 VH with K28V, Y55W, V101I, F113E, V115I
# VL: B1 VL
# notes: Dual-Ig, IgG; also called H1610L581; dBBDu183H1610/dBBDu072L0581
# B5: H1610L0939 (antibody, V domains shown)
# VH: B1 VH with K28V, Y55W, V101I, F113E, V115I
# VL: B1 VL with R59V, S98H
# notes: Dual-Ig, IgG; also called H1610L939; dBBDu183H1610/dBBDu072L0939
# B6: H1643L0581 (antibody, V domains shown)
# VH: B1 VH with M34F, K54Y, F113E
# VL: B1 VL
# notes: Dual-Ig, IgG; also called H1643L581; dBBDu183H1643/dBBDu072L0581
# B7: H1647L0581 (antibody, V domains shown)
# VH: B1 VH with V32T, M34F, K54Y, A57D, F113E
# VL: B1 VL
# notes: Dual-Ig, IgG; also called dBBDu183H1647/dBBDu072L0581
# B8: H1649L0581 (antibody, V domains shown)
# VH: B1 VH with K28V, M34F, A60D, G68E, F113E
# VL: B1 VL
# notes: Dual-Ig, IgG; also called dBBDu183H1649/dBBDu072L0581
# B9: H1651L0581 (antibody, V domains shown)
# VH: B1 VH with K28V, M34F, A60D, K67E, F113E
# VL: B1 VL
# notes: Dual-Ig, IgG; also called dBBDu183H1651/dBBDu072L0581
# B10: H1649L0943 (antibody, V domains shown)
# VH: B1 VH with K28V, M34F, A60D, G68E, F113E
# VL: B1 VL with Q27E, R59L, S98H
# notes: Dual-Ig, IgG; also called dBBDu183H1649/dBBDu072L0943
# B11: H1652L0943 (antibody, V domains shown)
# VH: B1 VH with K28V, M34F, K54Y, A60D, K67E, F113E
# VL: B1 VL with Q27E, R59L, S98H
# notes: Dual-Ig, IgG; also called dBBDu183H1652/dBBDu072L0943
# B12: H1673L0581 (antibody, V domains shown)
# VH: B1 VH with K28V, M34F, Y55W, A60D, G68E, V101I, F113E, V115I
# VL: B1 VL
# notes: Dual-Ig, IgG; also called dBBDu183H1673/dBBDu072L0581
# B13: H1673L0943 (antibody, V domains shown)
# VH: B1 VH with K28V, M34F, Y55W, A60D, G68E, V101I, F113E, V115I
# VL: B1 VL with Q27E, R59L, S98H
# notes: Dual-Ig, IgG; also called dBBDu183H1673/dBBDu072L0943
# B14: H2591L0581 (antibody, V domains shown)
# VH: B1 VH with M34F, K54Y, A60G, A63H, S105A, F113E
# VL: B1 VL
# notes: Dual-Ig, IgG; also called H2591L581; dBBDu183H2591/dBBDu072L0581
# B15: H2594L0581 (antibody, V domains shown)
# VH: B1 VH with M34F, K54Y, A60G, A63H, S105A, T108Q, F113E
# VL: B1 VL
# notes: Dual-Ig, IgG; also called H2594L581; dBBDu183H2594/dBBDu072L0581
# B16: dBBDu167/L091 (antibody, V domains shown)
# VH: B1 VH with K28T, V32A, Y55G, A57L, S107G, T108G, L109G, A112G
# VL: DIVMTQSPLSLPVTPGEPASISCSASESLLHNNRHTYLHWYQQKPGQAPRLLIYRVSNRFNGVPDRFSGSGSGTDFTLKISRVEAEDVGVYYCGQGTQVPFTFGQGTKLEIK
# notes: IgG format; constant regions not specified
# B17: H183/L072 (antibody, V domains shown)
# VH: B1 VH with K28T, V32A, Y55G, L109V
# VL: B1 VL with P25A, V29L, H99V
# notes: Dual-Fab antibody (Dual-Ig), bivalent IgG; also called parental Dual-Fab H183L072; dBBDu183H/dBBDu072L
# B18: GPC3 ERY22-dBBDu_189/L116 (bispecific antibody, human IgG1, kappa, L234A L235A, N297A)
# heavy 1: DIVMTQSPLSLPVTPGEPASISCRSSQSLVHSNRNTYLHWYQQKPGQAPRLLIYKVSNRFSGVPDRFSGSGSGTDFTLKISRVEAEDVGVYYCSQNTHVPPTFGQGTKLEIKSSASTKGPSVFPLAPSSKSTSGGTAALGCLVKDYFPEPVTVSWNSGALTSGVHTFPAVLQSSGLYSLSSVVTVPSSSLGTQTYICNVNHKPSNTKVDKKVEPKSCDKTHTCPPCPAPEAAGGPSVFLFPPKPKDTLMISRTPEVTCVVVDVSHEDPEVKFNWYVDGVEVHNAKTKPREEQYASTYRVVSVLTVLHQDWLNGKEYKCKVSNKALPAPIEKTISKAKGQPREPQVCTLPPSRDELTKNQVSLWCLVKGFYPSDIAVEWESNGQPENNYKTTPPVLDSDGSFFLYSKLTVDKSRWQQGNVFSCSVMHEALHNHYTQKSLSLSPHHHHHHHH
# light 1: QVQLVQSGAEVKKPGASVKVSCKASGYTFTDYEMHWIRQPPGQGLEWIGAIDPKTGDTAYSQKFKGRVTLTADKSTSTAYMELSSLTSEDTAVYYCTRFYSYTYWGQGTLVTVSSASVAAPSVFIFPPSDEQLKSGTASVVCLLNNFYPREAKVQWKVDNALQSGNSQESVTEQDSKDSTYSLSSTLTLSKADYEKHKVYACEVTHQGLSSPVTKSFNRGEC
# heavy 2: QVQLVESGGGLVQPGRSLRLSCAASGFTFSNAWMHWVRQAPGKGLEWIAQIKDRSNQYATYYAPSVKGRFTISRDDSKNSIYLQMNSLKTEDTAVYYCHYVHYAQASSLLPSFGVDAWGQGTTVTVSSASTKGPSVFPLAPSSKSTSGGTAALGCLVKDYFPEPVTVSWNSGALTSGVHTFPAVLQSSGLYSLSSVVTVPSSSLGTQTYICNVNHKPSNTKVDKKVEPKSCDKTHTCPPCPAPEAAGGPSVFLFPPKPKDTLMISRTPEVTCVVVDVSHEDPEVKFNWYVDGVEVHNAKTKPREEQYASTYRVVSVLTVLHQDWLNGKEYKCKVSNKALPAPIEKTISKAKGQPREPQVYTLPPSRCELTKNQVSLSCAVKGFYPSDIAVEWESNGQPENNYKTTPPVLDSDGSFFLVSKLTVDKSRWQQGNVFSCSVMHEALHNHYTQKSLSLSPDYKDDDDK
# light 2: DIVMTQSPLSLPVTPGEPASISCSSSQELVHANRQIYLHWYQQKPGQAPRLLIYKVANRFPGVPDRFSGSGSGTDFTLKISRVEAEDVGVYYCAQGTQVPFTFGQGTKLEIKRTVAAPSVFIFPPSDEQLKSGTASVVCLLNNFYPREAKVQWKVDNALQSGNSQESVTEQDSKDSTYSLSSTLTLSKADYEKHKVYACEVTHQGLSSPVTKSFNRGEC
# B19: GPC3 ERY22-dBBDu_189/L119 (bispecific antibody, human IgG1, kappa, L234A L235A, N297A)
# heavy 1: B18 heavy 1
# light 1: B18 light 1
# heavy 2: B18 heavy 2
# light 2: B18 light 2 with S24T, S25A, A32I, Q35F, Y37F, A57S, P61I, T97S
# Target: T1, Human CD137 ECD (human)
# T1 construct: also called human CD137 extracellular domain; recombinant human CD137
# Experiment: SPR Biacore T200, 37 C, Ab captured on anti-human Fc, antigen as analyte;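 also: recombinant human CD137 flowed over antibodies held by amine-coupled anti-human Fc on a CM4 chip, run in ACES pH 7.4 buffer with 150 mM NaCl and 0.05% Tween 20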
# Method: (§1) Binding affinity of Dual-Fab antibodies (Dual-Ig) to human CD3 were assessed at 25 degrees C. using Biacore T200 instrument (GE Healthcare). Anti-human Fc (GE Healthcare) was immobilized onto all flow cells of a CM4 sensor chip using amine coupling kit (GE Healthcare). Antibodies were captured onto the anti-Fc sensor surfaces, then recombinant human CD3 or CD137 was injected over the flow cell. All antibodies and analytes were prepared in ACES pH 7.4 containing 20 mM ACES, 150 mM NaCl, 0.05% Tween 20, 0.005% NaN3. Sensor surface was regenerated each cycle with 3M MgCl2. […] CD137 binding affinity assay was conducted in same condition except assay temperature was set at 37 degrees C.
# T1 sequence (chain, as listed by the source limits assumed): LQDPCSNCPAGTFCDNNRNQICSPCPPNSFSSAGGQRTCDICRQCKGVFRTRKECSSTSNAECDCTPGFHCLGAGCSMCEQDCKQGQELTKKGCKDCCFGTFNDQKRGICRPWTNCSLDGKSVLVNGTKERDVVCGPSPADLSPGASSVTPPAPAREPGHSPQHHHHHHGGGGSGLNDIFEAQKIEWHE
Binder,Kd [nM],koff [s⁻¹],kon [M⁻¹ s⁻¹]
B1,111,0.00136,12200
B2,530,0.00579,10900
B3,86.8,0.00105,12100
B4,103,0.0011,10700
B5,61.8,0.000801,13000
B6,49.4,0.000606,12300
B7,64.8,0.000647,9980
B8,42.8,0.000553,12900
B9,43.2,0.000603,14000
B10,32.8,0.000468,14300
B11,36.4,0.00047,12900
B12,80.4,0.00096,11900
B13,59.1,0.000722,12200
B14,36.3,0.000742,20400
B15,78.1,0.00163,20900

# Target: human CD3 ed (human, UniProt P07766 23-126; P04234 22-105, limits assumed)
# Experiment: SPR Biacore T200, IgG captured on protein A, 25 C;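 also: antigens diluted in ACES running buffer at pH 7.4 were flowed over antibodies held on a CM3 chip bearing amine-coupled protein A, with buffer alone serving as blank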
# Method: (§2) Sensor chip CM3 (GE Healthcare) was immobilized with an appropriate amount of sure protein A (GE Healthcare) by amine coupling. The selected antibodies were captured by the chip to allow interaction to human CD3 ed, human CD137 and cyno CD137 as an antigen. The running buffer used was 20 mmol/1 ACES, 150 mmol/1 NaCl, 0.05% (w/v) Tween20, pH 7.4. All measurements were carried out at 25 degrees C. The antigens were diluted using the running buffer.
# (§3) Diluted antigen solutions and the running buffer which is the blank were loaded at a flow rate of 30 micro L/min for 180 seconds to allow each concentration of the antigen to interact with the antibody captured on the sensor chip. […] Next, to regenerate the sensor chip, 10 mmol/L glycine-HCl, pH 1.5 was loaded at a flow rate of 30 micro L/min for 10 seconds and 50 mmol/L NaOH was loaded at a flow rate 30 micro L/min for 10 seconds.
# (§4) Diluted antigen solutions and the running buffer which is the blank were loaded at a flow rate of 30 micro L/min for 120 seconds to allow each of the antigens to interact with the antibody captured on the sensor chip. […] Next, to regenerate the sensor chip, 10 mmol/L glycine-HCl, pH 1.5 was loaded at a flow rate of 30 micro L/min for 30 seconds and 50 mmol/L NaOH was loaded at a flow rate 30 micro L/min for 30 seconds.
# Chain of human CD3 ed (P07766 23-126 limits assumed, chain 1 of 2): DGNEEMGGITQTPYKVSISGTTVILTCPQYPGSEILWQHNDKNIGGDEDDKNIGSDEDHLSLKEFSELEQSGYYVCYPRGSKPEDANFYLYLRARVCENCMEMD
# Chain of human CD3 ed (P04234 22-105 limits assumed, chain 2 of 2): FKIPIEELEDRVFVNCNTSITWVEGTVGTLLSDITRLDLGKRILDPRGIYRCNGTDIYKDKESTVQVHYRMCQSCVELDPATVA
Binder,Kd [nM],koff [s⁻¹],kon [M⁻¹ s⁻¹]
B16,413,0.0216,52400

# Target: T2, cyno CD137 (cynomolgus monkey, UniProt Q07011 24-186 (human entry), limits assumed)
# T2 construct: also called cynomolgus monkey CD137
# T2 chain: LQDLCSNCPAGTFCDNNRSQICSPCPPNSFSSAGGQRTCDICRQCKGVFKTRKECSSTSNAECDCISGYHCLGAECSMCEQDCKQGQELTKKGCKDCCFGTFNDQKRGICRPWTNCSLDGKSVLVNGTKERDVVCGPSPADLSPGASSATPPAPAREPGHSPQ
# Experiment: SPR Biacore T200, IgG captured on protein A, 25 C;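 also: antigens diluted in ACES running buffer at pH 7.4 were flowed over antibodies held on a CM3 chip bearing amine-coupled protein A, with buffer alone serving as blank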
# Method: as §2, §3, §4
Binder,Kd [nM],koff [s⁻¹],kon [M⁻¹ s⁻¹]
B16,4170,0.0101,2430

# Target: T3, Human CD3eg linker (human)
# T3 construct: Single chain: CD3 epsilon and gamma subunits joined by a 29-mer linker, Flag-tag at the C-terminus; also called recombinant human CD3
# T3 chain: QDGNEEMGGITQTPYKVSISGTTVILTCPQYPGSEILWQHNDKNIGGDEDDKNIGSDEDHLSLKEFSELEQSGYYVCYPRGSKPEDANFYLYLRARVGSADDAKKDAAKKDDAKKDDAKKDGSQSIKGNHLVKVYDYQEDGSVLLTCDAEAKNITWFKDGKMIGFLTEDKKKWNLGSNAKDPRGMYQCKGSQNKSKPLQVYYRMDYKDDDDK
# Experiment: SPR Biacore T200, 25 C, Ab captured on anti-human Fc, antigen as analyte;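 also: Anti-Fc amine-coupled to a CM4 chip, recombinant human CD3 flowed over in 20 mM ACES buffer pH 7.4 with 150 mM NaCl and 0.05% Tween 20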
# Method: as §1
Binder,Kd [nM],koff [s⁻¹],kon [M⁻¹ s⁻¹]
B17,340,0.012,35400
B1,157,0.0194,123000
B2,43.8,0.00316,72000
B3,110,0.0156,142000
B4,20.9,0.00142,68000
B5,50.7,0.00253,50000
B6,265,0.0251,94600
B8,449,0.0336,75000
B9,517,0.0371,71800
B10,789,0.0481,61000
B12,13.3,0.00106,79600
B13,21,0.00116,55000
B14,525,0.0535,102000
B15,593,0.0584,98300

# Target: human CD137 on HDLM-2 cells (human, UniProt Q07011 24-255)
# Experiment: cell-based or functional assay
# Chain of human CD137 on HDLM-2 cells (Q07011 24-255): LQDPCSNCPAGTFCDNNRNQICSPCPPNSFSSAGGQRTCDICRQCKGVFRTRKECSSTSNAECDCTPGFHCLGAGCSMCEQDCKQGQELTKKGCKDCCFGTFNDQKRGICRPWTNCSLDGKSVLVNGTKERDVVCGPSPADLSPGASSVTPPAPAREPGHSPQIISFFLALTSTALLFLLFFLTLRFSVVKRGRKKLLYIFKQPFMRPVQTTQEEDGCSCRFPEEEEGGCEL
Binder,"Agonistic activity compared to B, antibody 6 ug/mL [%]","Agonistic activity compared to B, antibody 30 ug/mL [%]","Agonistic activity compared to Ctrl, antibody 6 ug/mL [%]","Agonistic activity compared to Ctrl, antibody 30 ug/mL [%]","hIL-6 (pg/mL), antibody 6 ug/mL [pg/mL]","hIL-6 (pg/mL), antibody 30 ug/mL [pg/mL]"
B18,8.28,19.2,28.7,72.9,1300,1570
B19,6.92,20.4,24,77.3,1260,1610
